# The supplement of paper PMC9170038
# System: MS2 coat protein
# Assay: apparent KD of MS2 coat protein; designed switch direction (-1 OFF switch, 1 ON switch): -1; higher = weaker reporter binding
# In short: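 Transcription of designed RNA switches on Illumina chips was done by stalled E. coli RNA polymerase. SNAP-549-labelled MS2 coat protein was then titrated in doubling steps from 0.7 or 1.5 nM to 3 µM, with steps of 0.8–1.5 h at the lowest and 10–20 min at the highest concentration. The per-design median over clusters of curve-fitted normalised fluorescence is reported as apparent KD.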
# [1] = Eterna round: R95, input ligand: FMN 200 uM
# [2] = Eterna round: R95, input ligand: microRNA oligo, concentration not stated
# [3] = Eterna round: R95, input ligand: none
Sequence,apparent KD of MS2 coat protein [1],apparent KD of MS2 coat protein [2],apparent KD of MS2 coat protein [3],apparent KD of MS2 coat protein (input ligand: FMN 200 uM),apparent KD of MS2 coat protein (input ligand: none)
GAGGGACAUGAGGAUCACCCAUGUGAGGAUAUGUGAGAAGGAUUGGAGAGAAUAAGAAACAGAAGGCGCGGGAG [JR_Exclu1_Sub087] (puzzle: Exclusion 1),48.9 nM,52.5 nM,116 nM,,
"GAGGUUUCAGGAUAUACAUGAGGAUCACCCAUGUUAUUAGUGUGGAUUGGUGUCCUGCGUAGAAGGGAGUAUAA [Eternabot (L2) Solution 93] (Eterna round: R97, puzzle: Exclusion 3)",,,,65.7 nM,57.2 nM
"GAGUAGAGAGGAUAUGCAAUGAUCAUCGUACGAUGAGGCUGACAUGAGGAUCACCCAUGUAGAAGGCUCUGAUC [EX2 #19] (Eterna round: R97, puzzle: Exclusion 2)",,,,22.1 nM,30.7 nM
"GAGUAGGGAGGAUAUGCAGAAUGACUCGUAAGUAAGAUAGGACAUGAGGAUCACCCAUGUAGAAGGCUCUGAUG [jun14#1] (Eterna round: R97, puzzle: Exclusion 2)",,,,46.3 nM,42 nM
GAGUGACAUGAGGAUCACCCAUGUAAGGAUAUACGGUUGGUAGAGAGAGGGAGAAAGGGUAGAAGGUACGAAGG [JR_Exclu1_Sub053] (puzzle: Exclusion 1),45.5 nM,44.1 nM,101 nM,,
GAGUGACAUGAGGAUCACCCAUGUAAGGAUAUACGGUUGGUAGAGAGAGGGCUAAAGGGUAGAAGGUACGAAGG [JR_Exclu1_Sub055] (puzzle: Exclusion 1),,63.1 nM,,,
GAGUGACAUGAGGAUCACCCAUGUGAGGAUAUCGGACGGACCAAAUUAACAAUAAAAGCGAGAAGGCACAUCGG [Exclusion 1 V12] (puzzle: Exclusion 1),64.7 nM,57.6 nM,66.5 nM,,
GAGUGACAUGAGGAUCACCCAUGUGAGGAUAUCGGACGGACCAAAUUAACAAUAUUUGCGAGAAGGCACAUCGG [Exclusion 1 V17] (puzzle: Exclusion 1),,82.2 nM,,,
GAGUGACAUGAGGAUCACCCAUGUGAGGAUAUCGGACGGACCUUGUUGGCUUCCGCCGCGAGAAGGCACAUCGG [Exclusion 1 V26] (puzzle: Exclusion 1),,87.5 nM,,,
"GAGUGCCGAGGAUAUACAAAUAUCCGCUAAUUAAUGCGAAAACAUGAGGAUCACCCAUGUAGAAGGCUGCACUC [AK-MS2ROC-r4-exclusion2-3] (Eterna round: R97, puzzle: Exclusion 2)",,,,13.9 nM,9.44 nM
"GAGUGCUGAGGAUAUACAUGAGGAUCACCCAUGUGCUUCAGCUAGGAGACUAGCAUCGGUAGAAGGCAGUACUC [Mod of lroppy 18 - Jieux - Exclusion 3] (Eterna round: R97, puzzle: Exclusion 3)",,,,60.1 nM,17.2 nM
"GAGUUAACGUGAGGAAUAUACAUGAGGAUCACCCAUGUUAACAAAUAUAUUGCUCGUCUUAUAACAACAAUUAACUC [Alarm 7 - Jieux - Sensor, turn-off variant 1] (Eterna round: R97, puzzle: Sensor, turn-off variant 1)",,,,22.9 nM,22.8 nM
"GAGUUACAUGAGGAUCACCCAUGUGAGGAUAUGAGUCAGUCACGGUGACGUGGCUGACUCAGAAGGCACUAUGG [Mat - Exclusion 1 - JL Mod - D43] (Eterna round: R97, puzzle: Exclusion 1)",,,,52.8 nM,233 nM
"GAGUUAGCGUGAGGAAUAUACAUGAGGAUCACCCAUGUUAACAAAUAUAUUGCUCGUCUUAUAACAACAAUUAACUC [Alarm 8 - Jieux - Sensor, turn-off variant 1] (Eterna round: R97, puzzle: Sensor, turn-off variant 1)",,,,14.9 nM,16.5 nM
"GAGUUAGCGUGAGGAAUAUACAUGAGGAUCACCCAUGUUAGCUAAUAUAUUGCUCGUCUUAUAACAACAAUUAACUG [Mod JX-Electric-eye] (Eterna round: R97, puzzle: Sensor, turn-off variant 1)",,,,14.2 nM,15.9 nM
"GAGUUAGCGUGAGGAAUAUACAUGAGGAUCACCCAUGUUGGCUAAUAUAUUGCUCGUCUUAUAACAACAAUUAACUG [Mod-hoo-honey#a] (Eterna round: R97, puzzle: Sensor, turn-off variant 1)",,,,16 nM,16.4 nM

Sequence,apparent KD of MS2 coat protein [1],apparent KD of MS2 coat protein [2],apparent KD of MS2 coat protein [3],apparent KD of MS2 coat protein (input ligand: FMN 200 uM),apparent KD of MS2 coat protein (input ligand: none)
GAUAAGCUAGGAUAUACAUAUUAUUUAAUAUCCUCAUUAAUACAUGAGGAUCACCCAUGUAGAAGGAGCAAUAG [Mat - Exclusion 2 - Mod of Hog - D90] (puzzle: Exclusion 2),,108 nM,,,
GAUACACAUGAGGAUCACCCAUGUGAGGAUAUGCGUACGUUGUCCGUAGGCGACGUGCGCAGAAGGCGCGUGAG [Mat - Mod of JL D88] (puzzle: Exclusion 1),,46.4 nM,,,
"GAUACCUCAGUGAGGAUAUUUUAUAGAUUAACCAGGAAGAAGGCACAUGAGGAUCACCCAUGUCCACGGCAGCC [Eternabot (L1) Solution 10] (Eterna round: R97, puzzle: Brourd's mod of Exclusion 4)",,,,23.2 nM,20.9 nM
GAUAGAGAGCAGGAUAUCUUGGGUUAGUAUCGUAGAGAAGGGCUCACAUGAGGAUCACCCAUGUGGUCCAAGAU [JL Dibiri mod 02] (puzzle: Exclusion 6),36.5 nM,15.1 nM,13.3 nM,,
"GAUAUCUCAGGAUAUACAUGCCCUCCGAAACGGAGUCAUGAACAUGAGGAUCACCCAUGUAGAAGGGAGAUAUC [Alacar 2] (Eterna round: R97, puzzle: Exclusion 2)",,,,25.5 nM,15.8 nM
"GAUAUGGGAGUUAGGAUAUGUCGCCCGAACGGGUAAUAGAAGGGACUUGAGGAUCACCCAAGUCAUAAAGAAUA [Rainan] (Eterna round: R97, puzzle: Brourd's mod of Exclusion 4)",,,,11.6 nM,14.6 nM
"GAUAUGGUGGAGGAUAUCAUUUUGGAACCAAAGUGAGAAGGCUAAACAUGAGGAUCACCCAUGUGAAGCAAGGG [Eternabot (Original) Solution 41] (Eterna round: R97, puzzle: Exclusion 6)",,,,23.3 nM,20.4 nM
"GAUCAACAUGAGGAUCACCCAUGUGAGGAUAUGCGAGAAUAGACUUCGGUCAGAUAGAGCAGAAGGCGCAGAUA [EX1 #3] (Eterna round: R97, puzzle: Exclusion 1)",,,,63.7 nM,37.9 nM
"GAUCAUGCAGGAUAUACAGUAACCAUGAAAACAUGGUUGUAACAUGAGGAUCACCCAUGUAGAAGGGCAUGAUC [Omei Ex2 A4] (Eterna round: R97, puzzle: Exclusion 2)",,,,23.5 nM,15.4 nM
"GAUCAUGCAGGAUAUACAGUAUCCAUGAAAACAUGGAUCAAACAUGAGGAUCACCCAUGUAGAAGGGCAUGAUC [Omei Ex2 A23] (Eterna round: R97, puzzle: Exclusion 2)",,,,19.1 nM,17.9 nM
"GAUCAUGCAGGAUAUACAGUAUCCAUGAAAACAUGGAUCUAACAUGAGGAUCACCCAUGUAGAAGGGCAUGAUC [Omei Ex2 A24] (Eterna round: R97, puzzle: Exclusion 2)",,,,17.9 nM,19 nM
"GAUCAUGCAGGAUAUACAGUUUCCAUGAAAACAUGGACCUCACAUGAGGAUCACCCAUGUAGAAGGGCAUGAUC [Omei Ex2 A27] (Eterna round: R97, puzzle: Exclusion 2)",,,,982 nM,443 nM
"GAUCAUGCAGGAUAUACAUGGAACAUGUAAUCAUGAAUUUCACAUGAGGAUCACCCAUGUAGAAGGGCAUGAUC [Omei Ex2 A14] (Eterna round: R97, puzzle: Exclusion 2)",,,,151 nM,2740 nM
"GAUCAUGCAGGAUAUACAUGGAUCAUGAAAACAUGAAUUUCACAUGAGGAUCACCCAUGUAGAAGGGCAUGAUC [Omei Ex2 A11] (Eterna round: R97, puzzle: Exclusion 2)",,,,13.9 nM,293 nM
"GAUCAUGCAGGAUAUACAUUUUCCAUGAAAACAUGGUCCUCACAUGAGGAUCACCCAUGUAGAAGGGCAUGAUC [Omei Ex2 A30] (Eterna round: R97, puzzle: Exclusion 2)",,,,37.6 nM,855 nM
"GAUCGCAUAGUCAGGAUAUCGAAGUAUCGGGACCGCGAGAAGGGACAUGAGGAUCACCCAUGUUUCAUGGGAAG [Riesaratce] (Eterna round: R97, puzzle: Brourd's mod of Exclusion 4)",,,,182 nM,113 nM
